Measurements reported in patent publication US10172917B2, “Targeted oesophageal administration of ZN-α2-glycoproteins (ZAG), methods and formulations thereof” (ASTON UNIVERSITY, priority 2012, dated 2019).

Experiments:
murine ZAG = experiment: Western blotting of murine ZAG in serum and WAT of ob/ob mice; type: in vivo, mouse; details: ob/ob mice dosed orally with human ZAG for 8 days, anti-mouse ZAG antibody
Description: Tissues were thawed, washed in PBS and lysed in Phosphosafe™ Extraction reagent for 5 min at room temperature, followed by sonication at 4° C. Cytosolic protein (5-20 ug) formed by centrifugation at 18,000 g for 5 min at 4° C., was resolved on 12% SDS PAGE by electrophoresis at 180V for about 1 h. To determine ZAG in serum 30 μl samples containing 20 μg total protein were electrophoresed as above. Protein was transferred to 0.45 μm nitrocellulose membranes, which had been blocked with 5% (w/v) non-fat dried milk (Marvel) in Tris-buffered saline, pH 7.5, at 4° C. overnight. Membranes were washed for 15 min in 0.1% Tween 20 buffered saline prior to adding the primary antibodies. Both primary and secondary antibodies were used at a dilution of 1:1000. Incubation was for 1 h at room temperature, and development was by ECL. Blots were scanned by a densitometer to quantify differences.

BAT of ob/ob mice = details: ob/ob mice after ZAG administration; cited from earlier work
ob/ob mice = experiment: Serum metabolite and insulin levels in ob/ob mice after ZAG administration; type: in vivo, mouse; details: ob/ob mice after ZAG administration
Text: FCS (foetal calf serum) was from Biosera (Sussex, UK), while DMEM (Dulbecco's modified Eagles Medium) was from PAA (Somerset, UK) and Freestyle medium was purchased from Invitrogen (Paisley, UK). Hybond A nitrocellulose membranes and peroxidise—conjugated rabbit anti-mouse antibody were from GE Healthcare (Bucks, UK), while enhanced chemiluminescene (ECL) development kits were purchased from Thermo Scientific (Northumberland, UK). Mouse monoclonal antibodies to full-length human and mouse ZAG were from Santa Cruz Biotechnology (Santa Cruz, Calif. A mouse insulin ELISA kit was purchased from DRG (Marburg, Germany) and glucose measurements in both urine and plasma were made using a Boots (Nottingham, UK) glucose kit. L-[U-^14C] tyrosine (sp.act 16.7 GBqmmol^−1) was purchased from Perkin Elmer Ltd, (Cambridge, UK), while 2-[1-^14C] deoxy-D-glucose (sp.act 1.85 GBqmmol^−1) was from American Radiolabeled Chemicals (Cardiff, UK).
Obese (ob/ob) mice (average weight 65 g) were bred in a colony, and were kept in an air conditioned room at 22+2° C. with ad libitum feeding of a rat and mouse breeding diet (Special Diet Services, Witham, UK) and tap water. […] Animals were grouped (n=5) to receive either ZAG/PBS (50 μg day^−1), or PBS in their drinking water, the experiment was repeated three times after a power analysis was performed. […] The ZAG was replaced every 48 h. One group of mice receiving ZAG were also administered propanolol (40 mgkg^−1, p.o.) daily. The dose of ZAG was chosen to be the same as that previously administered i.v. (1), so that a direct comparison could be made, between the two routes. Body weight, food and water intake, urinary glucose excretion, and body temperature, determined by the use of a rectal thermometer (RS Components, Northants, UK), were measured daily. A glucose tolerance test was performed on day 3. Animals were fasted for 12 h, followed by oral administration of glucose (1 gkg^−1 in a volume of 100 μl by gavage). Blood samples were removed from the tail vein at 15, 30, 60 and 120 min and used for the measurement of glucose. Urinary glucose was measured by collecting 0.5 ml urine and testing glucose concentration using a Boots glucose monitor. After 8 days of treatment the animals were terminated by cervical dislocation, tissues were removed and rapidly frozen in liquid nitrogen, and maintained at −80° C. Future work would be to repeat this work in diet-induced animals as alternative to a model with gene alteration, although previous studies have shown the ob/ob mouse to be a good indicator of potential human treatments. Animal studies were conducted under Home Office Licence according to the UKCCCR Guidelines for the care and use of laboratory animals.

B1: zinc-α2-glycoprotein (protein, listed as Homo sapiens)
chain: QENQDGRYSLTYIYTGLSKHVEDVPAFQALGSLNDLQFFRYNSKDRKSQPMGLWRQVEGMEDWKEDSQLQKAREDMETLKDIVEYYNDSNGSHVLQGRFGCEIENNRSSGAFWKYYYDGKDYIEFNKEIPAWVPFDPAAQITKQKWEAEPVYVQRAKAYLEEECPATLRKYLKYSKNILDRQDPPSVVVTSHQAPGEKKKLKCLAYDFYPGKIDVHWTRAGQVQEPELRGDVLHNGNGTYQSWVVVAVPPQDTAPYSCHVQHSSLAQPLVVPWEAS
notes: Recombinant human ZAG, a 41 kDa protein, produced by HEK293F cells transfected with pcDNA3.1 containing human ZAG
In the case of B1, the “elevation of murine ZAG in serum” value (murine ZAG) is given as “two-fold”, the “elevation of murine ZAG in serum” value (murine ZAG; listed as human ZAG) is given as 2 fold and the “increase in oxygen uptake by BAT” value (BAT of ob/ob mice) is given as “three-fold”. For the same molecule, the serum glucose level (ob/ob mice) was “decrease”, the serum glycerol level (ob/ob mice) was “elevation” and the serum insulin level (ob/ob mice) was “decrease”. For the same molecule, the “serum non-esterified fatty acids” value (ob/ob mice) was “decrease” and the serum triglycerides (ob/ob mice) was “decrease”.
